# Data from patent publication US10487337B2, “Methods for monocot plant improvement” (Agresearch Limited, priority 2014, dated 2019).
# B1: PPD1: PEAPOD 1 protein of Arabidopsis thaliana, SEQ ID NO: 1 (protein, listed as Arabidopsis thaliana)
# chain: MDVGVSPAKSILAKPLKLLTEEDISQLTREDCRKFLKDKGMRRPSWNKSQAIQQVLSLKALYEPGDDSGAGIFRKILVSQPVNPPRVTTTLIEPSNELEACGRVSYPEDNGACHRMDSPRSAEFSGGSGHFVSEKDGHKTTISPRSPAETSELVGQMTIFYSGKVNVYDGIPPEKARSIMHFAANPIDLPENGIFASSRMISKLISKEKMMELPQKGLEKANSSRDSGMEGQANRKVSLQRYREKRKDRKFSKAKKCPGVASSSLEMFLNCQPRMKAAYSQNLGCTGSPLHSQSPESQTKSPNLSVDLNSEGI
# Target: T1, BZR1 (Arabidopsis thaliana, UniProt Q8S307)
# T1 construct: expressed in transfected cells; host or cells: Nicotiana benthamiana leaves (Agrobacterium infiltration)
# T1 sequence (Q8S307 1-336): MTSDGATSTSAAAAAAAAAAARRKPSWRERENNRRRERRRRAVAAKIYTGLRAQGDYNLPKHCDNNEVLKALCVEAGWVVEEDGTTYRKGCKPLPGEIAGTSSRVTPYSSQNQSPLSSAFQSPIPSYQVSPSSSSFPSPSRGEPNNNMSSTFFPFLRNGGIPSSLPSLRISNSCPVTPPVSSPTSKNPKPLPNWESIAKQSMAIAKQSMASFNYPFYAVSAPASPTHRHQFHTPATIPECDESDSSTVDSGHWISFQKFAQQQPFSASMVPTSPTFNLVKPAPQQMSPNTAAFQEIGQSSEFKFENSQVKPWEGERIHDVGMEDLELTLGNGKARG
# Experiment: BiFC interaction with BZR1 in Nicotiana benthamiana leaves
# Format: cell-based
# Text: The binary BiFC-Gateway YFP vectors pDEST-VYNE(R)^GW (Venus aa 1-173) and pDEST-VYCE(R)^GW (Venus aa 156-239) with N-terminal fusions, were used to construct the following vectors; pDESTnYFP-BZR1, pDESTnYFP-NINJA, pDESTnYFP-PPD1, pDESTcYFP-BZR1, pDESTcYFP-PPD1, pDESTcYFP-PPD1Δppd, pDESTcYFP-PPD1Δtify and pDESTcYFP-PPD1Δjas*. For transient in planta expression of proteins interacting with PPD1 or BZR, NINJA and TPL were Gateway® sub-cloned into pRSh1, to construct pRSh1-NINJA and pRSh1-TPL. Plasmids for co-immunoprecipitation: A synthesised DNA construct encoding PPD1 with a 3×c-myc C-terminal fusion was sub-cloned into pRSh1 to produce pRSh1-PPD1-3×c-myc, while the NINJA cDNA sequence was sub-cloned into pB7FWG2,0 (Karimi et al 2002, Trends Plant Sci. 7, 193-195) to construct pB7FWG2-NINJA-GFP. When expressed these constructs produced proteins listed in sequences 60, 62, 70 71 72 73 74 75 76 77 78 79: including TOPLESS (TPL), NINJA, Bimolecular Fluorescence (BiFC) nYFP, BiFC cYFP, BiFC nYFP-NINJA, BiFC nYFP-BZR1, BiFC cYFP-PPD1, BiFC cYFP-NINJA, BiFC cYFP-BZR1, BiFC cYFP-PPD1-ppd, BiFC cYFP-PPD1-tify, BiFC cYFP-PPD1-jas*.
# Transient BiFC experiments were performed using combinations of pDESTnYFP and pDESTcYFP plasmids, with or without plasmids for the expression of NINJA (pRSh1-NINJA) or TPL (pRSh1-TPL) and Agrobacterium-infiltration of Nicotiana benthamiana leaves. For infiltration Agrobacterium tumefaciens GV3101 strains containing the binary vectors were re-suspended from plates and prepared for transformation as described for the LUC assay. All YFP and expression strains were mixed in ratios of 1:1 (vol/vol) with the addition of strain P19 at 1/10th volume. Five leaf discs were sampled from each infiltrated leaf after 40 h. Two hours prior to sampling for microscopic fluorescence observations leaves were infiltrated with a 1 μg/ml DAPI solution to stain nuclei. YFP fluorescence and DAPI staining was detected using an Olympus Fluoview FV10i confocal laser scanning microscope. Each experiment was repeated twice.
molecule,measurement,setting,value
B1,interaction with BZR1,"fully expanded leaves, co-expression of NINJA",restored
same,interaction with BZR1,pavement cells of immature Nicotiana benthamiana leaves,appears to interact with BZR1 in the nucleus
